From patent US20230272081A1 (AVACTA LIFE SCIENCES, published 2023)
Blank lines part the entries; values can stand above or below the binder they belong to.

Tests used:
[1] = biological target: T1, human PD-L1-Fc (R&D Systems) (human, UniProt Q9NZQ7 19-239); experiment: SPR (Biacore T200), PD-L1-Fc amine-coupled to CM5 chip, AFFIMER as analyte, 1:1 Langmuir fit
T1 construct: Bought from R&D Systems; also called rhPD-L1-Fc; human PD-L1 Fc chimeric protein; not shown: the Fc part of the bought chimera is not described
Method: To analyze PD-L1-Fc binding kinetics, a Biacore T200 kinetic analysis was performed using running buffer HBS-EP+ and series S sensor CM5 (GE Healthcare) chip Fc2 immobilized with PD-L1-Fc (R&D Systems) in 10 mM sodium acetate pH 4.0 using amine coupling reagents (GE Healthcare). The concentration titration of ILF AFFIMER® proteins was run as analyte at a flow rate of 30 μl/min. […] with 3 mM NaOH (GE healthcare) for 20 seconds at 20 μl/min flow rate. The Fc2-1 data blank was subtracted and fit to a 1:1 Langmuir binding model (Biacore evaluation software; GE) to calculate an apparent KD value.

[2] = biological target: PD-L1 (PD-1/PD-L1 blockade Bioassay, Promega) (UniProt Q9NZQ7 19-290, limits assumed); experiment: cell-based or functional assay
[3] = biological target: T2, human serum albumin (HSA) (human, UniProt P02768 25-609); experiment: SPR (Biacore) kinetic analysis, pH 6.0 and pH 7.4 running buffer; the pH for each end is not stated; lower end of the range; pH 6.0 or pH 7.4 not told
T2 construct: mature; also called HuSA; HSA (Sigma)

[4] = biological target: T3, mouse serum albumin (MSA) (mouse, UniProt P07724 25-608); experiment: binding ELISA on coated MSA, pH 7.4 by the legend (the panel's title prints pH 7)
[5] = biological target: T3, mouse serum albumin (MSA); experiment: SPR (Biacore) kinetic analysis, MSA, pH 6.0; reference HSA-18 monomer

T1 sequence (Q9NZQ7 19-239): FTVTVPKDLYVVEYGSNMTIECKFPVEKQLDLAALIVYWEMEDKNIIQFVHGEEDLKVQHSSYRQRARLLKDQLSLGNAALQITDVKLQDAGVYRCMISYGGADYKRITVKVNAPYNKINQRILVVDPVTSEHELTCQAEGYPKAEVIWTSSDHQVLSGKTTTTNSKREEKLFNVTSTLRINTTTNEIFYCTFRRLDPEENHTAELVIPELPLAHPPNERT
PD-L1 (PD-1/PD-L1 blockade Bioassay, Promega), sequence (Q9NZQ7 19-290 limits assumed): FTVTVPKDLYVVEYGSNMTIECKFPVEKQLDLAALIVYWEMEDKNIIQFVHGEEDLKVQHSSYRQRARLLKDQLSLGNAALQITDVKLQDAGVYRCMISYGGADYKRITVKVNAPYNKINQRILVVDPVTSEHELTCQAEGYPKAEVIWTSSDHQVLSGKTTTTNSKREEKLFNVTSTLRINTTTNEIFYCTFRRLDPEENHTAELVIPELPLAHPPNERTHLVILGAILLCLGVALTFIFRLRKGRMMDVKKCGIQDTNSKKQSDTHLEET
T2 sequence (P02768 25-609): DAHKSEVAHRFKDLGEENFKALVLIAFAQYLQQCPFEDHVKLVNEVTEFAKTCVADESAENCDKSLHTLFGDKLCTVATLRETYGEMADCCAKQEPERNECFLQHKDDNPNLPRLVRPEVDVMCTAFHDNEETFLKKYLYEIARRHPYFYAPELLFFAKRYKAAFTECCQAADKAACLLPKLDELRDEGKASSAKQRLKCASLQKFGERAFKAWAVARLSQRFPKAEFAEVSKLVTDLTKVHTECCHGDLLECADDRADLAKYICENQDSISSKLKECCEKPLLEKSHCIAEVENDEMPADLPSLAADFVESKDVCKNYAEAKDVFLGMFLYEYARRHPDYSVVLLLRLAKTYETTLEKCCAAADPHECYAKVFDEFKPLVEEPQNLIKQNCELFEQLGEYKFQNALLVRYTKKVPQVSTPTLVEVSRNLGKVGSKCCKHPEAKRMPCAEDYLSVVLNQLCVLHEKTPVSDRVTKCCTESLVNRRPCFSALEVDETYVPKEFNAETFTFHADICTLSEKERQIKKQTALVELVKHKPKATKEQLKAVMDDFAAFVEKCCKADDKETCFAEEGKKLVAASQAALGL

Kd [1]: 1.68 nM
koff [1]: 0.00345 s⁻¹
kon [1]: 2.05e+06 M⁻¹ s⁻¹
B2: AVA04-269 (designed binder)
chain: MIPRGLSEAKPATPEIQEIVDKVKPQLEEKTNETYGKLEAVQYKTQVLAKEYGPEEWWSTNYYIKVRAGDNKYMHLKVFNGPGDYEQVLIHADRVLTGYQVDKNKDDELTGFHHHHHH

Kd [3]: 109 to 152 nM
B5: HSA-18 (designed binder)
chain: MIPRGLSEAKPATPEIQEIVDKVKPQLEEKTNETYGKLEAVQYKTQVLADWWQAKWPHSTNYYIKVRAGDNKYMHLKVFNGPYKVHQSSGGADRVLTGYQVDKNKDDELTGFHHHHHH
notes: also called HSA-18 monomer

EC50 (read off the curve) [4]: ~5 nM
B6: HSA-41 (designed binder)
chain: MIPRGLSEAKPATPEIQEIVDKVKPQLEEKTNETYGKLEAVQYKTQVLANFFQRRWPGSTNYYIKVRAGDNKYMHLKVFNGPWKFRNTDRGADRVLTGYQVDKNKDDELTGFHHHHHH
notes: Made in E. coli; also called AVA-41; AFFIMER® XT “AVA-41”

Kd [1]: 2.95 nM
koff [1]: 0.0109 s⁻¹
kon [1]: 3.68e+06 M⁻¹ s⁻¹
B8: AVA04-261 (designed binder)
chain: MIPRGLSEAKPATPEIQEIVDKVKPQLEEKTNETYGKLEAVQYKTQVLAHAYGPRDWDSTNYYIKVRAGDNKYMHLKVFNGPPADHVLEEAADRVLTGYQVDKNKDDELTGFHHHHHH

fold of the monomer serum albumin binding AFFIMER affinity [5]: ≤ 2 fold
B9: AVA04-251 XT61 (designed binder)
chain: MIPRGLSEAKPATPEIQEIVDKVKPQLEEKTNETYGKLEAVQYKTQVLAREGRQDWVLSTNYYIKVRAGDNKYMHLKVFNGPWVPFPHQQLADRVLTGYQVDKNKDDELTGFAEAAAKEAAAKEAAAKEAAAKEAAAKEAAAKMIPRGLSEAKPATPEIQEIVDKVKPQLEEKTNETYGKLEAVQYKTQVLADWWQAKWPHSTNYYIKVRAGDNKYMHLKVFNGPYKVHQSSGGADRVLTGYQVDKNKDDELTGFAEAAAKEAAAKEAAAKEAAAKEAAAKEAAAKMIPRGLSEAKPATPEIQEIVDKVKPQLEEKTNETYGKLEAVQYKTQVLAREGRQDWVLSTNYYIKVRAGDNKYMHLKVFNGPWVPFPHQQLADRVLTGYQVDKNKDDELTGFHHHHHH
notes: Made in E. coli and purified on NiNTA

Continued, binder first:

B1: AVA04-236 (designed binder)
chain: MIPRGLSEAKPATPEIQEIVDKVKPQLEEKTNETYGKLEAVQYKTQVLAKEHGPDSWWSTNYYIKVRAGDNKYMHLKVFNGPQEKNQWVEEADRVLTGYQVDKNKDDELTGFHHHHHH
Kd [1]: 5.43 nM
koff [1]: 0.00977 s⁻¹
kon [1]: 1.8e+06 M⁻¹ s⁻¹

B3: AVA04-251 XT14 (designed binder)
chain: MIPRGLSEAKPATPEIQEIVDKVKPQLEEKTNETYGKLEAVQYKTQVLAREGRQDWVLSTNYYIKVRAGDNKYMHLKVFNGPWVPFPHQQLADRVLTGYQVDKNKDDELTGFAEAAAKEAAAKEAAAKEAAAKEAAAKEAAAKMIPRGLSEAKPATPEIQEIVDKVKPQLEEKTNETYGKLEAVQYKTQVLAREGRQDWVLSTNYYIKVRAGDNKYMHLKVFNGPWVPFPHQQLADRVLTGYQVDKNKDDELTGFAEAAAKEAAAKEAAAKEAAAKEAAAKEAAAKMIPRGLSEAKPATPEIQEIVDKVKPQLEEKTNETYGKLEAVQYKTQVLANFFQRRWPGSTNYYIKVRAGDNKYMHLKVFNGPWKFRNTDRGADRVLTGYQVDKNKDDELTGFHHHHHH
half-maximal concentration in the PD-1/PD-L1 blockade Bioassay (Promega), fold change relative to assay buffer; the table's head prints IC50 (nM), the text calls it EC50 [2]: 176 nM

B4: AVA04-251 XT15 (designed binder)
chain: MIPRGLSEAKPATPEIQEIVDKVKPQLEEKTNETYGKLEAVQYKTQVLAREGRQDWVLSTNYYIKVRAGDNKYMHLKVFNGPWVPFPHQQLADRVLTGYQVDKNKDDELTGFAEAAAKEAAAKEAAAKEAAAKEAAAKEAAAKMIPRGLSEAKPATPEIQEIVDKVKPQLEEKTNETYGKLEAVQYKTQVLANFFQRRWPGSTNYYIKVRAGDNKYMHLKVFNGPWKFRNTDRGADRVLTGYQVDKNKDDELTGFAEAAAKEAAAKEAAAKEAAAKEAAAKEAAAKMIPRGLSEAKPATPEIQEIVDKVKPQLEEKTNETYGKLEAVQYKTQVLAREGRQDWVLSTNYYIKVRAGDNKYMHLKVFNGPWVPFPHQQLADRVLTGYQVDKNKDDELTGFHHHHHH
half-maximal concentration in the PD-1/PD-L1 blockade Bioassay (Promega), fold change relative to assay buffer; the table's head prints IC50 (nM), the text calls it EC50 [2]: 434 nM

B7: AVA04-251 XT60 (designed binder)
chain: MIPRGLSEAKPATPEIQEIVDKVKPQLEEKTNETYGKLEAVQYKTQVLAREGRQDWVLSTNYYIKVRAGDNKYMHLKVFNGPWVPFPHQQLADRVLTGYQVDKNKDDELTGFAEAAAKEAAAKEAAAKEAAAKEAAAKEAAAKMIPRGLSEAKPATPEIQEIVDKVKPQLEEKTNETYGKLEAVQYKTQVLAREGRQDWVLSTNYYIKVRAGDNKYMHLKVFNGPWVPFPHQQLADRVLTGYQVDKNKDDELTGFAEAAAKEAAAKEAAAKEAAAKEAAAKEAAAKMIPRGLSEAKPATPEIQEIVDKVKPQLEEKTNETYGKLEAVQYKTQVLADWWQAKWPHSTNYYIKVRAGDNKYMHLKVFNGPYKVHQSSGGADRVLTGYQVDKNKDDELTGFHHHHHH
notes: as for B9
fold of the monomer serum albumin binding AFFIMER affinity [5]: ≤ 2 fold
